{"source": "patent US20230256114A1", "about": "“NOVEL MAYTANSINOIDS AS ADC PAYLOADS AND THEIR USE FOR THE TREATMENT OF CANCER” (priority 2020, published 2023)", "molecules": {"B1": {"name": "Anti-Trop-2-BI-P203 (antibody, V domains shown)", "VH": "SALMSRLTISKDTSKNQFSLKLSSVTAADTAVYYCARDENWDGAWFAYWGQGTLVTVSS", "VL": "DIVMTQSPDSLAVSLGERATINCKSSQSLLNSGTRKNYLAWYQQKPGQPPKLLISWASSRESGVPDRFSGSGSGTDFTLTISSLQAEDVAVYYCKQSYNLFTFGGGTKVEIKR", "modifications": "BI-P203 maytansinoid drug-linker on reduced cysteines via the maleimide group; positions not given; DAR 3.5, 5.1 or 7"}}, "key": {"[1]": {"test": "Size exclusion chromatography (SEC) of ADC monomer and aggregates", "assay_type": "physicochemical", "conditions": "for Aggregation rate (%): anti-Trop-2 ADC with the named payload, Cysteine conjugation", "description": "Some embodiments of the invention relate to DM1s linked to antibodies via a non-cleavable linker. In this example, anti-Trop-2 antibody was reduced by adding antibody to TCEP (Tris (2-carboxyethyl) phosphine) dissolved in a pH-adjusted PBS EDTA buffer. The antibody/TCEP solution was incubated at 37° C. for 2-3 hrs. The reduced antibodies were buffer exchanged into conjugation reaction buffer. The BI-P203 payload dissolved in DMSO was added to a solution of reduced anti-Trop-2 monoclonal antibody at payload/antibody ratio of 7-30:1 in order to achieve different drug to antibody ratios (DARs). The payload/antibody solution was incubated for 1-2 hr at 20° C. while the reduced antibody was conjugated to BI-P203 payload via the maleimide group. After conjugation was completed, the reaction mixture was desalted and concentrated to yield anti-Trop-2-DM1 ADCs. The biochemical properties of the resulting ADCs were characterized using size-exclusion chromatography high pressure liquid chromatography (SEC-HPLC) to determine purity and aggregation content, and by using hydrophobic interaction chromatography HPLC (HIC-HPLC) to confirm drug loading (DAR). The conjugation procedure is illustrated in FIG. 12. The final ADC products are comprised of four or six or seven DM1-linker molecules. The cysteine conjugation method used in the conjugation process produces more homogenous ADCs compared to lysine conjugation method."}, "[2]": {"test_system": "MDA-MB-468 breast cancer cells", "test": "In vitro cytotoxicity assay (Cell Counting Kit-8, 72 hours)", "assay_type": "cell-based, human", "conditions": "FIG. 21", "description": "(§1) Anti-Trop-2 ADCs were conjugated with different DM1 derivatives with similar DARs, and were tested ahead to ahead with anti-Trop-2-SMCC-DM1 and anti-Trop-2-vc-MMAE against BxPC-3 pancreatic cancer cells representing high Trop-2 expression, MDA-MB-468 breast cancer cells, N87 gastric cancer cells, and SK-BR-3 […] cancer cells representing moderate Trop-2 expression, Colo205 colon cancer cells representing low Trop-2 expression, and A549 lung cancer cells and MDA-MB-231 breast cancer cells with undetectable level of Trop-2. In vitro cytotoxicity assay was performed. Briefly, all cell lines were cultured in a suitable culture medium at 37° C. in a humidified incubator atmosphere of 5% CO2. Cells were plated in 96-well flat bottom plates. Cell seeding number ranged from 500 cells//100 ul/well to 6,000 cells/100 μl/well. Cells were allowed to adhere overnight at 37° C. in a humidified atmosphere of 5% CO2. ADCs were prepared from stock solution and diluted into appropriated working concentration 24 hours after cell seeding. […] Cell Counting Kit-8 solution (Dojindo China Co., Ltd, lot #PL701) was added to the wells for 1-4 hours at 37° C. and the absorbance at 450 nm was measured using a Microplate Reader (SpectraMax M5, Molecular Devices) and SoftMax Pro5.4.1 software. Dose-response curves were generated and IC50 was calculated using GraphPad Prism 7 three-parameter curve fitting."}, "[3]": {"test": "Solubility of payloads and ADCs (comparison in words)", "conditions": "inferred from Table 2", "description": "The lipophilicity and aggregation rate of the ADCs of the present invention were characterized. The most commonly used measure of lipophilicity is LogP, which is the partition coefficient of a molecule between aqueous and lipophilic phases, usually octanol and water. […] In this experiment, the LogP of anti-Trop-2 BI-P203 and anti-Trop-2-SMCC-DM1 was calculated using ChemDraw software. Size exclusion chromatography (SEC) was used to characterize the ADC monomer and their aggregates."}, "[4]": {"test_system": "MDA-MB-468, SK-BR-3, Colo205, and A549 cells", "test": "In vitro cytotoxicity assay of ADCs and free payloads (FIG. 20)", "assay_type": "cell-based", "conditions": "all tested cells", "description": "as §1, with “fitting. […]” for “fitting.”"}, "[5]": {"test": "Size exclusion chromatography (SEC) of ADC monomer and aggregates", "assay_type": "physicochemical", "conditions": "anti-Trop-2 ADC with the named payload, Lysine conjugation, DAR 3.9"}, "[6]": {"molecular_target": "T1, Trophoblast cell-surface antigen-2 (Trop-2) (human, UniProt P09758 27-323)", "T1 sequence (looked up)": "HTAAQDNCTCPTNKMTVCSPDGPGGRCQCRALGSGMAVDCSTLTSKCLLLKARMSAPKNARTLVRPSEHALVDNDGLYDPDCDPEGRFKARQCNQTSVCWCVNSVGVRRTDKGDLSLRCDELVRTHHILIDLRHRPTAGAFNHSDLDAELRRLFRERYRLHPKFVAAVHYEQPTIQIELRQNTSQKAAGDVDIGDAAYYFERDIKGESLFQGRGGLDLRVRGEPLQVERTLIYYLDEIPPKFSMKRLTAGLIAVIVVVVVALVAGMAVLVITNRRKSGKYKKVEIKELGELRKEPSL", "test": "cell-based or functional assay"}}, "data": [{"molecule": "COc1cc2cc(c1Cl)N(C)C(=O)C[C@H](OC(=O)[C@H](C)N(C)C(=O)CCOCCn1cc(COCCOCCOCCOCCNC(=O)CCN3C(=O)C=CC3=O)nn1)[C@@]1(C)O[C@H]1[C@H](C)[C@@H]1C[C@@](O)(NC(=O)O1)C(OC)/C=C/C=C(\\C)C2", "note": "(stereo partly shown) [BI-P203]", "values": [{"measurement": "aggregation rate compared to SMCC-DM1 payload", "setting": "[1]; ADCs of the payloads", "result": "decreased aggregation rate"}, {"measurement": "Aggregation rate (%)", "setting": "[1]; DAR 3.5", "result": 0.33, "unit": "%"}, {"measurement": "Aggregation rate (%)", "setting": "[1]; DAR 6.2", "result": 1.0, "unit": "%"}, {"measurement": "Aggregation rate (%)", "setting": "[1]; DAR 7.0", "result": 2.0, "unit": "%"}, {"measurement": "in vitro activity of the free payload compared with free SMCC-DM1 payload", "setting": "[2]", "result": "less activity than that of free SCMM-DM1 payload"}, {"measurement": "solubility of payload compared to SMCC-DM1 payload", "setting": "[3]", "result": "increased solubility"}]}, {"molecule": "COc1cc2cc(c1Cl)N(C)C(=O)C[C@H](OC(=O)[C@H](C)N(C)C(=O)CCCCCn1cc(COCCOCCOCCOCCNC(=O)CCN3C(=O)C=CC3=O)nn1)[C@@]1(C)O[C@H]1[C@H](C)[C@@H]1C[C@@](O)(NC(=O)O1)C(OC)/C=C/C=C(\\C)C2", "note": "(stereo partly shown) [BI-P204]", "values": [{"measurement": "Aggregation rate (%)", "setting": "[1]; DAR 2.8", "result": 0.65, "unit": "%"}]}, {"molecule": "COc1cc2cc(c1Cl)N(C)C(=O)C[C@H](OC(=O)C1CCN(C(=O)CCOCCOCCOCCOCCNC(=O)CCN3C(=O)C=CC3=O)CC1)[C@@]1(C)O[C@H]1[C@H](C)[C@@H]1C[C@@](O)(NC(=O)O1)C(OC)/C=C/C=C(\\C)C2", "note": "(stereo partly shown) [BI-P206]", "values": [{"measurement": "Aggregation rate (%)", "setting": "[1]; DAR 3.6", "result": 0.76, "unit": "%"}]}, {"molecule": "COc1cc2cc(c1Cl)N(C)C(=O)C[C@H](OC(=O)C1CCN(C(=O)CCOCCOCCOCCOCCOCCOCCNC(=O)CCN3C(=O)C=CC3=O)CC1)[C@@]1(C)O[C@H]1[C@H](C)[C@@H]1C[C@@](O)(NC(=O)O1)C(OC)/C=C/C=C(\\C)C2", "note": "(stereo partly shown) [BI-P207]", "values": [{"measurement": "Aggregation rate (%)", "setting": "[1]; DAR 3.4", "result": 1.02, "unit": "%"}]}, {"molecule": "COc1cc2cc(c1Cl)N(C)C(=O)C[C@H](OC(=O)C1CCC(CNC(=O)CCOCCOCCOCCOCCNC(=O)CCN3C(=O)C=CC3=O)CC1)[C@@]1(C)O[C@H]1[C@H](C)[C@@H]1C[C@@](O)(NC(=O)O1)C(OC)/C=C/C=C(\\C)C2", "note": "(stereo partly shown) [BI-P208]", "values": [{"measurement": "Aggregation rate (%)", "setting": "[1]; DAR 3.0", "result": 2.04, "unit": "%"}, {"measurement": "Aggregation rate (%)", "setting": "[1]; DAR 6.7", "result": 9.46, "unit": "%"}, {"measurement": "Aggregation rate (%)", "setting": "[1]; DAR 7.3", "result": 6.02, "unit": "%"}]}, {"molecule": "COc1cc2cc(c1Cl)N(C)C(=O)C[C@H](OC(=O)[C@H](C)N(C)C(=O)COCCn1cc(COCCOCCOCCNC(=O)CCN3C(=O)C=CC3=O)nn1)C1(C)O[C@H]1[C@H](C)[C@@H]1C[C@@](O)(NC(=O)O1)C(OC)/C=C/C=C(\\C)C2", "note": "(stereo partly shown) [BI-P209]", "values": [{"measurement": "Aggregation rate (%)", "setting": "[1]; DAR 6.2", "result": 4.96, "unit": "%"}, {"measurement": "in vitro cytotoxic potency of the free payload compared with free BI-P203", "setting": "[4]", "result": "slightly more potent than free BI-P203"}]}, {"molecule": "COc1cc2cc(c1Cl)N(C)C(=O)C[C@H](OC(=O)[C@H](C)N(C)C(=O)CCSC1CC(=O)N(CC3CCC(C(=O)ON4C(=O)CCC4=O)CC3)C1=O)[C@]1(C)O[C@H]1[C@H](C)[C@@H]1C[C@@](O)(NC(=O)O1)[C@H](OC)/C=C/C=C(\\C)C2", "note": "(stereo partly shown) [SMCC-DM1]", "values": [{"measurement": "Aggregation rate (%)", "setting": "[5]", "result": 3.6, "unit": "%"}]}, {"molecule": "B1", "values": [{"measurement": "IC50 (nM), in vitro cytotoxicity (CCK-8, 72 h), BxPC-3 cells (TROP2 +++), ADC at DAR 3.5", "setting": "[6]", "result": 0.48, "unit": "nM"}, {"measurement": "IC50 (nM), in vitro cytotoxicity (CCK-8, 72 h), BxPC-3 cells (TROP2 +++), ADC at DAR 7", "setting": "[6]", "result": 0.59, "unit": "nM"}, {"measurement": "IC50 (nM), in vitro cytotoxicity (CCK-8, 72 h), Colo205 cells (TROP2 +), ADC at DAR 7", "setting": "[6]", "result": 31.8, "unit": "nM"}, {"measurement": "IC50 (nM), in vitro cytotoxicity (CCK-8, 72 h), MDA-MB-468 cells (TROP2 ++), ADC at DAR 5.1", "setting": "[6]", "result": 1.2, "unit": "nM"}, {"measurement": "IC50 (nM), in vitro cytotoxicity (CCK-8, 72 h), MDA-MB-468 cells (TROP2 ++), ADC at DAR 7", "setting": "[6]", "result": 0.77, "unit": "nM"}, {"measurement": "IC50 (nM), in vitro cytotoxicity (CCK-8, 72 h), NCI-N87 cells (TROP2 ++/+), ADC at DAR 3.5", "setting": "[6]", "result": 8.93, "unit": "nM"}, {"measurement": "IC50 (nM), in vitro cytotoxicity (CCK-8, 72 h), NCI-N87 cells (TROP2 ++/+), ADC at DAR 7", "setting": "[6]", "result": 0.62, "unit": "nM"}]}]}
